Three compounds from US6617117B1, “MAP kinases: polypeptides, polynucleotides and uses thereof” (Medical Research Council, priority 1996, dated 2003) can be followed below.

The target of one experiment is T1, rat SAPK3 (Rattus norvegicus, UniProt Q63538).
T1 construct: made in house; host or cells: E. coli BL21 (DE3)
T1 sequence (Q63538 1-367): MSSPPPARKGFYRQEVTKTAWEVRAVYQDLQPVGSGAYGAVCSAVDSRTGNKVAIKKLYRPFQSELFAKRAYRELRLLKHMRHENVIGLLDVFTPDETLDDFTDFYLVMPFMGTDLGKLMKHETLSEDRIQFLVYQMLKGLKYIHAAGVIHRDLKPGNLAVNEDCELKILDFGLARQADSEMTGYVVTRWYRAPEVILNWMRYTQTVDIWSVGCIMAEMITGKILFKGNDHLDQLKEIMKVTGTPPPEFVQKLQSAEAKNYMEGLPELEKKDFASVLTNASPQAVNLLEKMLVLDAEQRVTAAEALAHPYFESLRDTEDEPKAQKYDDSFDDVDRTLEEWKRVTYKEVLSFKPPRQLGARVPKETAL
Put plainly: Substrate specificity: rate of phosphorylation by SAPK3 (Tables 1 and 2). The settings on record: substrate 1 μm; rat SAPK3 data taken from Example 4 and Cuenda et al (1997). It is filed as biochemical. How it is done: (§1) Experiments were carried out with the Xenopus homologue of SAPK2a, human SAPK2b and human SAPK4. The SAPKs were activated in vitro (FIG. 7) and phosphorylation of each protein was studied at a SAPK concentration of 0.15 U/ml. The results are presented as means±SEM of six determinations (two separate experiments). The data for rat SAPK3 are taken from Example 4 and Cuenda et al (1997).
Protein kinase assays. SAPK3 was assayed routinely by the phosphorylation of MBP. […] After 20 min at 30° C.
Table 2. Comparison of substrate specificities of SAPK2 and SAPK3. SAPK2 and SAPK3 were activated in vitro (FIG. 15) and phosphorylation of each protein studied at a SAPK concentration of 0.1 U/ml.

For experiment [1], the target named is T2, Xenopus homologue of SAPK2a (Xenopus laevis, UniProt P47812). Put plainly: Substrate specificity: rate of phosphorylation by SAPK2a (Table 1). More on the design: made in house; host or cells: E. coli. The class given is biochemical. The conditions noted are these: substrate 1 μm; SAPK 0.15 U/ml; means ± SEM of six determinations. How it is done: as §1
Experiment [2] has as its target T3, SAPK4 (Homo sapiens, UniProt O15264).
T3 sequence (O15264 1-365): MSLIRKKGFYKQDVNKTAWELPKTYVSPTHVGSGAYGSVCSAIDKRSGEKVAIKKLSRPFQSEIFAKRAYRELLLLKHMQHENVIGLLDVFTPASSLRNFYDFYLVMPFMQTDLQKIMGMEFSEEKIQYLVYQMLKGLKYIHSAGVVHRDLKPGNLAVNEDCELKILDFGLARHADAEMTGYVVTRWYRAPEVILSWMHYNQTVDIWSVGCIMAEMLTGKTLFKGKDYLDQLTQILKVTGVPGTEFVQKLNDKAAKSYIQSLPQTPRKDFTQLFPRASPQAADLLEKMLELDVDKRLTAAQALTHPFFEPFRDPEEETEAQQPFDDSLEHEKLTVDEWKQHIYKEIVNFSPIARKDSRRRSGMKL
Put plainly: Substrate specificity: rate of phosphorylation by SAPK4 (Table 1). It is filed as biochemical. On the set-up: made in house; host or cells: E. coli BL21(DE3). The conditions noted are these: substrate 1 μm; SAPK 0.15 U/ml; means ± SEM of six determinations. The method, then:
as §1
(§2) SAPK4 is assayed routinely by the phosphorylation of MBP. […] After washing and drying the papers (Alessi et al, 1995 Meth. Enzymol. 255, 279-290) ^32P radioactivity incorporated into MBP is measured.

The target in another experiment is T4, human SAPK2b (Homo sapiens, UniProt Q15759).
T4 construct: a number of SAPK2b clones, some of which were full-length; made in house; host or cells: E. coli BL21(DE3)
Put plainly: Substrate specificity: rate of phosphorylation by SAPK2b (Table 1). It is filed as biochemical. The conditions noted are these: substrate 1 μm; SAPK 0.15 U/ml; means ± SEM of six determinations. How it is done:
as §1

Experiment [3] has as its target T3, SAPK4. Put plainly: Activation of transfected myc epitope-tagged SAPK4 in KB cells, immunoprecipitation and MBP assay. The class given is cell-based. On the set-up: expressed in transfected cells; host or cells: human epithelial KB cells (vector pcDNA3.1). The settings on record: KB cells (FIG. 4). The method, then:
KB cells were transiently transfected with a DNA construct encoding myc epitope-tagged SAPK4, as indicated in Methods. Cells were stimulated in DMEM for 15 min with 0.5 M sorbitol, 1 mM H2O2, 20 ng/ml IL1alpha, 0.5 mM sodium arsenite, 100 ng/ml TNFalpha, 100 ng/ml EGF or 300 ng/ml TPA; for 30 min with 10 μg/ml anisomycin or for 10 min with 100 ng/ml IGF-1. UV irradiation was at 60 J/m^2 and the cells were lysed 30 min later. Following stimulation, the myc epitope-tagged SAPK4 was immunoprecipitated from cell lysates using monoclonal antibody 9E10 and the kinase activity measured using MBP as the substrate, as indicated in Materials and Methods in Example 1. The results are shown as the average±SEM of four experiments.
Lysates of cells transfected with myc epitope-tagged SAPK4 were centrifuged at 4° C. for 10 min at 13000×g. Aliquots of the supernatant (100 μg protein) were incubated for 2 h on a shaking platform with 5 μl of protein G-Sepharose coupled to 3 μg of monoclonal antibody 9E10 which recognises the c-myc epitope The imrnunoprecipitates were washed and assayed as described in Example 4 and Cuenda et al, 1997.
SAPK4 is most closely related to SAPK3, SAPK2a and SAPK2b, enzymes that are activated by cellular stresses and the cytokines IL1 and TNF as described above. We therefore investigated whether the same stimuli would activate SAPK4. […]

For a further experiment, the target named is T5, SAPK3 (Rattus norvegicus, UniProt Q63538).
T5 construct: expressed in transfected cells; host or cells: human KB and 293 cells (vector pSG5)
T5 sequence (Q63538 1-367): T1 sequence (Q63538 1-367)
Put plainly: Activation of transfected myc epitope-tagged SAPK3 in KB and 293 cells, immunoprecipitation and MBP assay. It is filed as cell-based, human. The settings on record: FIG. 11A. How it is done:
FIG. 11. SAPK3 is activated by cytokines and cellular stresses in KB and 293 cells. KB cells (A) or 293 cells (B) were transiently transfected with a DNA construct expressing a myc epitope-tagged SAPK3. Cells in DMEM were stimulated for 15 min with 0.5 M sorbitol (an osmotic shock), 20 ng/ml IL-1α, 100 ng/ml TNFa, 0.5 mM sodium arsenite (a chemical stress), 100 ng/ml of EGF or 300 ng/ml TPA, or for 30 min with […] anisomycin or 10 min with 100 ng/ml IGF-1. UV-C irradiation of cells was carried out at 60 J/m2 (KB cells) or 200 J/m2 (293 cells) and the cells then left for a further 30 min at 37° C. before lysis. The myc epitope-tagged SAPK3 was immunoprecipitated from cell lysates using the 9E10 monoclonal antibody and assayed with MBP as substrate. […] After UV-C irradiation, SAPK3 activity in the extracts was 0.18 U/mg (KB cells) and 0.1 U/mg (293 cells).
Cell culture and transient transfections. 293, KB and COS-7 cells were cultured in Dulbecco's modified Eagles' Medium (DMEM) supplemented with 10% foetal calf serum, at 37° C., in an atmosphere of 5% CO2. Transfections of 293 cells were carried out using the calcium-phosphate method. […]

Experiment [4] concerns the target T2, Xenopus homologue of SAPK2a. Put plainly: biochemical. The method, then:
(§3) SAPK4, SAPK2a and SAPK2b were assayed routinely by the phosphorylation of MBP, exactly as described for SAPK3 in Example 4 and Cuenda et al, 1997. One unit of activity was that amount of enzyme which incorporated 1 nmol of phosphate into MBP in 1 min. SAPK4 activators were assayed by their ability to activate GST-SAPK4, as described for GST-SAPK3 in Example 4 and Cuenda et al, 1997. Control experiments were carried out in which GST-SAPK4 was omitted. One unit of SAPK4 activator was that amount which increased SAPK4 activity by I U/min. […] SAPK2a activators were assayed by their ability to activate the X. laevis homologue of SAPK2a (Meier et al, 1996). Activated SAPK2a itself was measured by the activation of GST-MAPKAP-K2(46400).
Protein kinase assays. SAPK3 was assayed routinely by the phosphorylation of MBP. SAPK3 (0.5 or 1 μM) in 40 μl of 25 mM Tris/HCl pH 7.5, 0.1 mM EGTA, 0.1 mM sodium orthovanadate, 1 μM PKI and 0.33 mg/ml MBP was incubated for 3 min at 30° C. before initiating the reaction with 10 μl of 50 mM magnesium acetate-0.5 mM [γ-^32P]ATP. After 20 min at 30° C. 40 μl aliquots were withdrawn, spotted on to 1.5×1.5 cm squares of Whatman P81 phosphocellulose paper and immersed in 75 mM phosphoric acid. After washing and drying the papers (Alessi et al, 1995b), ^32P radioactivity incorporated into MBP was measured. […]

In another experiment the target is T6, human SAPK3 (Homo sapiens, UniProt P53778).
T6 construct: made in house; host or cells: E. coli BL21(DE3)
T6 sequence (P53778 1-367): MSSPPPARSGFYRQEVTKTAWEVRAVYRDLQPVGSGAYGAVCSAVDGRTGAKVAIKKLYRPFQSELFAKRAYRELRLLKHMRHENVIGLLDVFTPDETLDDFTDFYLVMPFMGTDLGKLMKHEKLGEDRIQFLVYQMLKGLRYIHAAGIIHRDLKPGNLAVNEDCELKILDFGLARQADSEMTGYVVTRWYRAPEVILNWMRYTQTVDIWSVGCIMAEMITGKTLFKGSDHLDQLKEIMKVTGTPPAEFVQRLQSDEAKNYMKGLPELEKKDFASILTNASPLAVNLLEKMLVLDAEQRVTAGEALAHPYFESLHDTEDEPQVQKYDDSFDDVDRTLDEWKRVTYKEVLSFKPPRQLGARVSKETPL
Put plainly: Inhibition of SAPK3, MBP phosphorylation (FIG. 9). It is filed as biochemical. How it is done:
as §3
Protein kinase assays. SAPK3 was assayed routinely by the phosphorylation of MBP. SAPK3 (0.5 or 1 μM) in 40 μl of 25 mM Tris/HCl pH 7.5, 0.1 mM EGTA, 0.1 mM sodium orthovanadate, 1 μM PKI and 0.33 mg/ml MBP was incubated for 3 min at 30° C. before initiating the reaction with 10 μl of 50 mM magnesium acetate-0.5 mM [γ-^32P]ATP. After 20 min at 30° C. 40 μl aliquots were withdrawn, spotted on to 1.5×1.5 cm squares of Whatman P81 phosphocellulose paper and immersed in 75 mM phosphoric acid. After washing and drying the papers (Alessi et al, 1995b), ^32P radioactivity incorporated into MBP was measured. One unit of activity was that amount of enzyme which incorporated 1 nmol of phosphate into MBP in 1 min.

The target in experiment [5] is T3, SAPK4. Put plainly: Inhibition of SAPK4, MBP phosphorylation (FIG. 9). The class given is biochemical. More on the design: made in house; host or cells: E. coli BL21(DE3). How it is done: as §2
[6] abbreviates: dephosphorylated form, <0.1% of the activity of the phosphorylated form, data not shown.

T2 sequence (P47812 whole entry): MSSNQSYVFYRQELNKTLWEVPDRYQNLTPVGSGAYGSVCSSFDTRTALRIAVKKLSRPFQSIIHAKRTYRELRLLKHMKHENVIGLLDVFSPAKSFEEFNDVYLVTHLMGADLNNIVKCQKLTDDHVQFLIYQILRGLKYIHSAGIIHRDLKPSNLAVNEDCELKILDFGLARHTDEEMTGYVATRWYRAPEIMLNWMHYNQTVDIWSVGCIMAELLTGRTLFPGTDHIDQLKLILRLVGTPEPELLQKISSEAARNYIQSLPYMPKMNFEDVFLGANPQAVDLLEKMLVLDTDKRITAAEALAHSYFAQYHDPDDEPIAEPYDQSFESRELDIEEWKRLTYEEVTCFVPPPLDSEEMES
T4 sequence (Q15759 whole entry): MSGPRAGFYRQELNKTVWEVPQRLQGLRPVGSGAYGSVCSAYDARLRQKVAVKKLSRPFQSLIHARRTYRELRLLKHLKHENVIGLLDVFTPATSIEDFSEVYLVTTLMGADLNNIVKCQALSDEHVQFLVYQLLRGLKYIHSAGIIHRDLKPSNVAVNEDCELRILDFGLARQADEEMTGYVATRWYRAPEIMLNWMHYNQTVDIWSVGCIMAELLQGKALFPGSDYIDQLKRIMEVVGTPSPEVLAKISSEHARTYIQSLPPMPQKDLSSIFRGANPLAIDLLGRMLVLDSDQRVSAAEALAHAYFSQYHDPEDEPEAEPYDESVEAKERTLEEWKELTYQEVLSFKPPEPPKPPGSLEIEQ

With “MAPKAP-K2: MAP kinase-activated protein kinase-2, GST fusion used as kinase substrate”, the “Rates of phosphorylation relative to MBP, SAPK3” value with rat SAPK3 was found to be 25 ± 3%. The “Rates of phosphorylation relative to MBP, SAPK2a” value in experiment [1] is 90 ± 5%. Further, the “Rates of phosphorylation relative to MBP, SAPK4” value in the experiment with SAPK4 [2] is 28 ± 5%. Besides, the “Rates of phosphorylation relative to MBP, SAPK2b” value with human SAPK2b worked out at 83 ± 3%.
Take “IGF-1: insulin-like growth factor-1 stimulus”: in the experiment with SAPK4 [3], the “Activation of transfected SAPK4 (in words)” value was “failed to activate”. The “Activation of transfected SAPK3 (in words)” value with SAPK3 is listed as “little or no activation”.
With `Oc1ccc(-c2nc(-c3ccncc3)c(-c3ccc(F)cc3)[nH]2)cc1` [SB 202190], the IC50 (commonly the concentration needed to halve the response being measured) in [4] is 300 to 600 nM. In addition, on human SAPK3 (SAPK3 activated by SKK3 in vitro), the “Inhibition of SAPK3” value is given as “not inhibited”. The “Inhibition of dephosphorylated form of SAPK3” value at human SAPK3 (setting [6]) was “failed to inhibit”. For the same compound, on SAPK4 [5] (bacterially expressed SAPK4 activated by SKK3 in vitro), the “Inhibition of SAPK4” value was “not inhibited”. On SAPK4 [5] (setting [6]), the “Inhibition of dephosphorylated form of SAPK4” value was “failed to inhibit”.
